Legend:
Assay in all cases: holdup assay
Set-up in all cases: key: below the threshold = too weak to quantify, mostly under pKd 3.1 to 4
[1] = target: FRMPD2_3, Q68DX3
[2] = target: T1, SNTA1, Q13424
T1 sequence (Q13424 82-180, limits assumed, looked up): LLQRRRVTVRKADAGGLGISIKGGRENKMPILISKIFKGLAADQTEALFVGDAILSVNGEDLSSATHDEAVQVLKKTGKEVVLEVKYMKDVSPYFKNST

[3] = target: T2, APBA3_1, O96018
T2 sequence (O96018 389-490, limits assumed, looked up): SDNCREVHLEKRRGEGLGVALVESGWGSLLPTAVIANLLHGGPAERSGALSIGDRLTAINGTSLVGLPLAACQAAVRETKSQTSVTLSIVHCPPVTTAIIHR

[4] = target: T3, DVL3, Q92997
T3 sequence (Q92997 244-331, limits assumed, looked up): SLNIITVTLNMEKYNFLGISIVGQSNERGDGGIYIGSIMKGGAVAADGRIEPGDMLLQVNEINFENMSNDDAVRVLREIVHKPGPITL

[5] = target: LAP2, Q96RT1
Sequence of LAP2, Q96RT1 (Q96RT1 other isoform, or with tags, fused parts or gaps): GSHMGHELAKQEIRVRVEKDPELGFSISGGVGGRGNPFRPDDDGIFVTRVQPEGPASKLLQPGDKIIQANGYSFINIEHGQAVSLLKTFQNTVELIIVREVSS

[6] = target: T4, PDZD2_2, O15018
T4 sequence (O15018 329-429, limits assumed, looked up): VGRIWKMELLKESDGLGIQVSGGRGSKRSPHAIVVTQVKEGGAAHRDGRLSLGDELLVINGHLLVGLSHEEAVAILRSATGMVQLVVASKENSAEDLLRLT

[7] = target: T5, MPP7, Q5T2T1
T5 sequence (Q5T2T1 134-230, limits assumed, looked up): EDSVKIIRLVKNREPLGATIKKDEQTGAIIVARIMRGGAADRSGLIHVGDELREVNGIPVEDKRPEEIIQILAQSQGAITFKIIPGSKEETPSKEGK

[8] = target: T6, ARHGEF11, O15085
T6 sequence (O15085 42-136, limits assumed, looked up): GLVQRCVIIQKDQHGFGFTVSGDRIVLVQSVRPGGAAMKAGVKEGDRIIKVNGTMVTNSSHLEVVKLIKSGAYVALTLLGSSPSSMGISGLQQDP

[9] = target: T7, PTPN13_1, Q12923
T7 sequence (Q12923 1088-1188, limits assumed, looked up): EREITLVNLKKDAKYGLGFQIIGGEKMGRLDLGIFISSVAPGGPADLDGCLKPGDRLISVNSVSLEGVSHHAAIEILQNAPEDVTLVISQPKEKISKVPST

[10] = target: IL16_4, Q14005
Sequence of IL16_4, Q14005 (Q14005 1229-1329): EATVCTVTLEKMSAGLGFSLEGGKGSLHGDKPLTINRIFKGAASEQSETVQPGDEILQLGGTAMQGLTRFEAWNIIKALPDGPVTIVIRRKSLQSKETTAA

[11] = target: T8, APBA2_1, Q99767
T8 sequence (Q99767 563-664, limits assumed, looked up): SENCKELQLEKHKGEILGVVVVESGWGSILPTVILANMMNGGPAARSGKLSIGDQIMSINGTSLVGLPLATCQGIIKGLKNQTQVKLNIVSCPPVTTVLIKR

[12] = target: T9, RAPGEF6, Q8TEU7
T9 sequence (Q8TEU7 525-625, limits assumed, looked up): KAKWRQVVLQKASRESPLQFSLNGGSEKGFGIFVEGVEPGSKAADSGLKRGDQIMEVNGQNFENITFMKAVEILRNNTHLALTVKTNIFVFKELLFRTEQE

[13] = target: FRMPD2_1, Q68DX3
Sequence of FRMPD2_1, Q68DX3 (Q68DX3 770-861): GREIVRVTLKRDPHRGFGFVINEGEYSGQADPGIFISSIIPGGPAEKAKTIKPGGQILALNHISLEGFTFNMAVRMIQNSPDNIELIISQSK

[14] = target: T10, LRRC7, Q96NW7
T10 sequence (Q96NW7 1440-1537, limits assumed, looked up): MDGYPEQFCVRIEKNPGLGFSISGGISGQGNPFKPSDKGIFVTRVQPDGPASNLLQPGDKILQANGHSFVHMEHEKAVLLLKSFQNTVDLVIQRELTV

[15] = target: DLG2_3, Q15700
[16] = target: T11, MPP6, Q9NZW5
T11 sequence (Q9NZW5 125-219, limits assumed, looked up): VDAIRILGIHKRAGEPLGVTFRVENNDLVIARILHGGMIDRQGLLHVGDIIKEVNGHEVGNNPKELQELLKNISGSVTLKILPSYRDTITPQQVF

[17] = target: HTRA2, O43464
Sequence of HTRA2, O43464 (O43464 355-458): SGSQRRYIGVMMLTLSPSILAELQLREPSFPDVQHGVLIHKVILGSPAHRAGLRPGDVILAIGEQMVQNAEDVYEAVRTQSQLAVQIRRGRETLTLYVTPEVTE

[18] = target: PARD3_3, Q8TEW0
Sequence of PARD3_3, Q8TEW0 (Q8TEW0 582-685): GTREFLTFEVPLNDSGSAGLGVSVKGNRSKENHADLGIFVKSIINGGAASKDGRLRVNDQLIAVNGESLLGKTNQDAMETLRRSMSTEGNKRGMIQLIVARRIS

[19] = target: GRIP2_6, Q9C0E4
Sequence of GRIP2_6, Q9C0E4 (Q9C0E4 648-740): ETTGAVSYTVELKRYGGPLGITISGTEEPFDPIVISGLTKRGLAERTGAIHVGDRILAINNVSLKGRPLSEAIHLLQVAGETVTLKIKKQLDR

[20] = target: DLG5_1, Q8TDM6
Sequence of DLG5_1, Q8TDM6 (Q8TDM6 617-713): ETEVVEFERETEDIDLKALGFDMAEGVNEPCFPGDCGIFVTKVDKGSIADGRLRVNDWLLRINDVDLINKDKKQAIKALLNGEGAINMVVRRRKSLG

[21] = target: T12, SNTB1, Q13884
T12 sequence (Q13884 107-205, limits assumed, looked up): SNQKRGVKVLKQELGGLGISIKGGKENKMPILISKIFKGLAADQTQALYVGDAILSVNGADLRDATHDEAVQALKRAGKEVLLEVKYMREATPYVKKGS

[22] = target: MAGI2_6, Q86UL8
Sequence of MAGI2_6, Q86UL8 (Q86UL8 1141-1229): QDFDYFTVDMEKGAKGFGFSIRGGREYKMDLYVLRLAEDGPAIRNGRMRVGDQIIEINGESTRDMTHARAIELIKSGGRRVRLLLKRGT

[23] = target: SNX27, Q96L92
[24] = target: AHNAK1, Q09666
Sequence of AHNAK1, Q09666 (Q09666 4-100): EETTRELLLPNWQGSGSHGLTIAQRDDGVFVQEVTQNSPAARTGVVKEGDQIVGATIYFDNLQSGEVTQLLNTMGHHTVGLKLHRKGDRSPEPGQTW

[25] = target: T13, DLG3_1, Q92796
T13 sequence (Q92796 125-227, limits assumed, looked up): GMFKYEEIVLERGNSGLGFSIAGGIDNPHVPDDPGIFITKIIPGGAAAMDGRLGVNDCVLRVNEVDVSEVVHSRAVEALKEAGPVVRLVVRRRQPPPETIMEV

[26] = plain residues with an end cap or a label only (N-terminal biotin on a linker: ttds)
[27] = plain residues with an end cap or a label only (N-terminal biotin on a linker: gsgsgs; C-terminal amide)

Sequence of FRMPD2_3, Q68DX3 (Q68DX3 1073-1166): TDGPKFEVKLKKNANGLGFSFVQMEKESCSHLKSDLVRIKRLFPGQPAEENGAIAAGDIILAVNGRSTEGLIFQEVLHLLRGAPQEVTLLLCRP

B1: DOCK4, Q8N1I0 (peptide)
chain: RPLPRKVSQL
[1]; [26]
  pKd: below the threshold
[2]; [26]
  pKd: below the threshold
[3]; [26]
  pKd: below the threshold
[4]; [26]
  pKd: below the threshold
[5]; [26]
  pKd: 3.73
[6]; [26]
  pKd: below the threshold
[7]; [26]
  pKd: below the threshold
[8]; [26]
  pKd: 3.62
[9]; [26]
  pKd: below the threshold
[10]; [26]
  pKd: below the threshold
[11]; [26]
  pKd: below the threshold
[12]; [26]
  pKd: below the threshold
[13]; [26]
  pKd: below the threshold
[14]; [26]
  pKd: below the threshold
[15]; [26]
  pKd: 4.17
[16]; [26]
  pKd: below the threshold
[17]; [26]
  pKd: below the threshold
[18]; [26]
  pKd: below the threshold
[19]; [26]
  pKd: below the threshold
[20]; [26]
  pKd: below the threshold
[21]; [26]
  pKd: 3.55
[22]; [26]
  pKd: below the threshold
[23]; [26]
  pKd: below the threshold
[24]; [26]
  pKd: below the threshold
[25]; [26]
  pKd: below the threshold

B2: MLLT4_int, P55196 (peptide)
chain: YGIVQETTFDLGGDIH
[1]; [27]
  pKd: below the threshold
[2]; [27]
  pKd: below the threshold
[3]; [27]
  pKd: below the threshold
[4]; [27]
  pKd: below the threshold
[5]; [27]
  pKd: below the threshold
[6]; [27]
  pKd: below the threshold
[7]; [27]
  pKd: below the threshold
[8]; [27]
  pKd: below the threshold
[9]; [27]
  pKd: below the threshold
[10]; [27]
  pKd: below the threshold
[11]; [27]
  pKd: below the threshold
[12]; [27]
  pKd: below the threshold
[13]; [27]
  pKd: below the threshold
[14]; [27]
  pKd: below the threshold
[15]; [27]
  pKd: 3.77
[16]; [27]
  pKd: below the threshold
[17]; [27]
  pKd: below the threshold
[18]; [27]
  pKd: below the threshold
[19]; [27]
  pKd: below the threshold
[20]; [27]
  pKd: below the threshold
[21]; [27]
  pKd: 3.53
[22]; [27]
  pKd: below the threshold
[23]; [27]
  pKd: 4.59
[24]; [27]
  pKd: below the threshold
[25]; [27]
  pKd: below the threshold

B3: ACVR2A, P27037 (peptide)
chain: VDFPPKESSL
[1]; [26]
  pKd: below the threshold
[2]; [26]
  pKd: 4.28
[3]; [26]
  pKd: below the threshold
[4]; [26]
  pKd: below the threshold
[5]; [26]
  pKd: below the threshold
[6]; [26]
  pKd: 3.63
[7]; [26]
  pKd: below the threshold
[8]; [26]
  pKd: 4.17
[9]; [26]
  pKd: below the threshold
[10]; [26]
  pKd: below the threshold
[11]; [26]
  pKd: below the threshold
[12]; [26]
  pKd: below the threshold
[13]; [26]
  pKd: 3.82
[14]; [26]
  pKd: below the threshold
[15]; [26]
  pKd: 3.75
[16]; [26]
  pKd: below the threshold
[17]; [26]
  pKd: below the threshold
[18]; [26]
  pKd: below the threshold
[19]; [26]
  pKd: below the threshold
[20]; [26]
  pKd: below the threshold
[21]; [26]
  pKd: 4.41
[22]; [26]
  pKd: 3.69
[23]; [26]
  pKd: 4.38
[24]; [26]
  pKd: below the threshold
[25]; [26]
  pKd: below the threshold

B4: SLC2A1, P11166 (peptide)
chain: FHPLGADSQV
[1]; [26]
  pKd: below the threshold
[2]; [26]
  pKd: below the threshold
[3]; [26]
  pKd: below the threshold
[4]; [26]
  pKd: below the threshold
[5]; [26]
  pKd: 3.48
[6]; [26]
  pKd: 4.22
[7]; [26]
  pKd: below the threshold
[8]; [26]
  pKd: below the threshold
[9]; [26]
  pKd: below the threshold
[10]; [26]
  pKd: below the threshold
[11]; [26]
  pKd: below the threshold
[12]; [26]
  pKd: below the threshold
[13]; [26]
  pKd: below the threshold
[14]; [26]
  pKd: below the threshold
[15]; [26]
  pKd: below the threshold
[16]; [26]
  pKd: below the threshold
[17]; [26]
  pKd: below the threshold
[18]; [26]
  pKd: below the threshold
[19]; [26]
  pKd: below the threshold
[20]; [26]
  pKd: below the threshold
[21]; [26]
  pKd: 3.64
[22]; [26]
  pKd: 3.99
[23]; [26]
  pKd: 4.05
[24]; [26]
  pKd: below the threshold
[25]; [26]
  pKd: below the threshold

B5: HPV73-E6, Q82005 (peptide)
chain: SGSRPSATVV
[1]; [26]
  pKd: below the threshold
[2]; [26]
  pKd: 3.54
[3]; [26]
  pKd: below the threshold
[4]; [26]
  pKd: 3.5
[5]; [26]
  pKd: below the threshold
[6]; [26]
  pKd: 4.11
[7]; [26]
  pKd: below the threshold
[8]; [26]
  pKd: 3.98
[9]; [26]
  pKd: 3.61
[10]; [26]
  pKd: below the threshold
[11]; [26]
  pKd: below the threshold
[12]; [26]
  pKd: 3.57
[13]; [26]
  pKd: 3.51
[14]; [26]
  pKd: 3.54
[15]; [26]
  pKd: 3.61
[16]; [26]
  pKd: 3.57
[17]; [26]
  pKd: below the threshold
[18]; [26]
  pKd: 3.76
[19]; [26]
  pKd: below the threshold
[20]; [26]
  pKd: below the threshold
[21]; [26]
  pKd: below the threshold
[22]; [26]
  pKd: below the threshold
[23]; [26]
  pKd: below the threshold
[24]; [26]
  pKd: below the threshold
[25]; [26]
  pKd: below the threshold

Source: article PMC9482650, “Quantitative fragmentomics allow affinity mapping of interactomes” (Nature Communications, 2022)
